Experimental data published in ChEMBL document CHEMBL1137898, “Benzopyranones with retro-amide side chains as (inhibitory) beta-lactamase substrates” (Bioorg Med Chem Lett, 2004).

What was measured:
[1] = substrate: CC(=O)OCC1=C(C(=O)O)N2C(=O)[C@@H](NC(=O)Cc3cccs3)[C@H]2SC1; assay: (§1) Km for OXA-1 beta-lactamase hydrolysis
[2] = substrate: O=C(Cc1ccccc1)NC1Cc2cccc(C(=O)O)c2OC1=O; assay: as §1
[3] = substrate: O=C(O)c1cccc2c1OC(=O)C(C(=O)NCc1ccccc1)C2; assay: as §1
[4] = substrate: O=C(Cc1ccccc1)NC1Cc2ccc(C(=O)O)cc2OC1=O; assay: (§2) Km for TEM-2 beta-lactamase hydrolysis
[5] = substrate: O=C(Cc1ccccc1)NC1Cc2cccc(C(=O)O)c2OC1=O; assay: as §2
[6] = substrate: O=C(O)c1ccc2c(c1)OC(=O)C(C(=O)NCc1ccccc1)C2; assay: as §2
[7] = substrate: O=C(O)c1cccc2c1OC(=O)C(C(=O)NCc1ccccc1)C2; assay: as §2
[8] = substrate: CC(=O)OCC1=C(C(=O)O)N2C(=O)[C@@H](NC(=O)Cc3cccs3)[C@H]2SC1; assay: (§3) Km for Staphylococcus aureus PC1 Beta-lactamase hydrolysis
[9] = substrate: O=C(Cc1ccccc1)NC1Cc2cccc(C(=O)O)c2OC1=O; assay: as §3
[10] = substrate: O=C(O)c1ccc2c(c1)OC(=O)C(C(=O)NCc1ccccc1)C2; assay: as §3
[11] = substrate: O=C(O)c1cccc2c1OC(=O)C(C(=O)NCc1ccccc1)C2; assay: as §3
[12] = substrate: CC(=O)OCC1=C(C(=O)O)N2C(=O)[C@@H](NC(=O)Cc3cccs3)[C@H]2SC1; assay: (§4) Km for Enterobacter cloacae P99 Beta-lactamase hydrolysis
[13] = substrate: O=C(Cc1ccccc1)NC1Cc2ccc(C(=O)O)cc2OC1=O; assay: as §4
[14] = substrate: O=C(Cc1ccccc1)NC1Cc2cccc(C(=O)O)c2OC1=O; assay: as §4
[15] = substrate: O=C(O)c1ccc2c(c1)OC(=O)C(C(=O)NCc1ccccc1)C2; assay: as §4
[16] = substrate: O=C(O)c1cccc2c1OC(=O)C(C(=O)NCc1ccccc1)C2; assay: as §4

B1: Beta-lactamase OXA-1 (Escherichia coli), P13661 (protein)
chain: MKNTIHINFAIFLIIANIIYSSASASTDISTVASPLFEGTEGCFLLYDASTNAEIAQFNKAKCATQMAPDSTFKIALSLMAFDAEIIDQKTIFKWDKTPKGMEIWNSNHTPKTWMQFSVVWVSQEITQKIGLNKIKNYLKDFDYGNQDFSGDKERNNGLTEAWLESSLKISPEEQIQFLRKIINHNLPVKNSAIENTIENMYLQDLDNSTKLYGKTGAGFTANRTLQNGWFEGFIISKSGHKYVFVSALTGNLGSNLTSSIKAKKNAITILNTLNL
Km [1]: 10 µM
Km [2]: 13.9 µM
Km [3]: 7.4 µM

B2: Beta-lactamase TEM (Escherichia coli), P62593 (protein)
chain: MSIQHFRVALIPFFAAFCLPVFAHPETLVKVKDAEDQLGARVGYIELDLNSGKILESFRPEERFPMMSTFKVLLCGAVLSRVDAGQEQLGRRIHYSQNDLVEYSPVTEKHLTDGMTVRELCSAAITMSDNTAANLLLTTIGGPKELTAFLHNMGDHVTRLDRWEPELNEAIPNDERDTTMPAAMATTLRKLLTGELLTLASRQQLIDWMEADKVAGPLLRSALPAGWFIADKSGAGERGSRGIIAALGPDGKPSRIVVIYTTGSQATMDERNRQIAEIGASLIKHW
Km [4]: > 1200 µM
Km [5]: 50 µM
Km [6]: > 200 µM
Km [7]: 290 µM

B3: Beta-lactamase (Staphylococcus aureus), P00807 (protein)
chain: MKKLIFLIVIALVLSACNSNSSHAKELNDLEKKYNAHIGVYALDTKSGKEVKFNSDKRFAYASTSKAINSAILLEQVPYNKLNKKVHINKDDIVAYSPILEKYVGKDITLKALIEASMTYSDNTANNKIIKEIGGIKKVKQRLKELGDKVTNPVRYEIELNYYSPKSKKDTSTPAAFGKTLNKLIANGKLSKENKKFLLDLMLNNKSGDTLIKDGVPKDYKVADKSGQAITYASRNDVAFVYPKGQSEPIVLVIFTNKDNKSDKPNDKLISETAKSVMKEF
Km [8]: 1 µM
Km [9]: 0.3 µM
Km [10]: > 200 µM
Km [11]: 1.8 µM

B4: Beta-lactamase (Enterobacter cloacae), P05364 (protein)
chain: MMRKSLCCALLLGISCSALATPVSEKQLAEVVANTITPLMKAQSVPGMAVAVIYQGKPHYYTFGKADIAANKPVTPQTLFELGSISKTFTGVLGGDAIARGEISLDDAVTRYWPQLTGKQWQGIRMLDLATYTAGGLPLQVPDEVTDNASLLRFYQNWQPQWKPGTTRLYANASIGLFGALAVKPSGMPYEQAMTTRVLKPLKLDHTWINVPKAEEAHYAWGYRDGKAVRVSPGMLDAQAYGVKTNVQDMANWVMANMAPENVADASLKQGIALAQSRYWRIGSMYQGLGWEMLNWPVEANTVVEGSDSKVALAPLPVAEVNPPAPPVKASWVHKTGSTGGFGSYVAFIPEKQIGIVMLANTSYPNPARVEAAYHILEALQ
Km [12]: 9 µM
Km [13]: 290 µM
Km [14]: 620 µM
Km [15]: 430 µM
Km [16]: 0.2 µM
